The values that follow come from article PMC12420816 (Nature Communications, 2025).

Data set [1] has as its target SARS-CoV-2 nsp7-11 polyprotein, tag-free with native (authentic) termini (SARS-CoV-2). Put plainly: native MS.
The data set “native MS” deals with the molecule itself. Put plainly: native MS.

As a reminder, the stoichiometry N is the number of molecules, sites or subunits per partner or assembly. “SARS-CoV-2 nsp7-11 polyprotein, tag-free with native (authentic) termini (domain or fragment)” displayed a stoichiometry N in data set [1] of 2.

B1: MERS-CoV mature nsp7, released from nsp7-11 by SARS-CoV-2 M^pro (natural protein)
chain: SKLTDLKCTSVVLLSVLQQLHLEANSRAWAFCVKCHNDILAATDPSEAFEKFVSLFATLMTFSGNVDLDALASDIFDTPSVLQ
Regarding B1, in the data set “native MS”, the “stoichiometry N” value was 2.
